Measured values: the DeepSol protein solubility set

Experiment: soluble on expression in E. coli; label from the status in PepcDB or PDB records

Sequence	soluble on expression in E. coli
MKKFDVAIVGGGLAGLTASIYLAKVGRKVIVLEKSSQFGGRGMTTNKNGICMNLGAHALYRGGAAFITFNELGMTLPGGIPSTKAHGIWKGDIFTIPTDFRSILSTPLLSWSAKVQFSRLMIRLGNLDVGEVPKMSLTTWAENEIKDPMVRNIFYALCRTTTYTFAPTIQLASSVLKQIQLSIKEGVLYVDGGWETIITKLRAIANDIGVQFLAKKHVVEIEHSEGKQRIHCVDDEVFEVGTVIVTTPPKEACKIIKGAEGTSLHKWSEQSVPVTVGALDIGLRQLPNPTHQFVLGLDQPIFFTNQSRAAKLSEDGSIAVSLIKYHNPVLEMNHIHEDKEQLESTMELLHSNWKREVVAQQYLPKITVVHDFPHIDRVEKPGPNIPEMPGVYVAGDWAGHDEILADAAVASGKRAALHILKQYESEAVHHGNGAVILEHHHHHH	soluble
QFLSGQLSIKLWFDKVGHQLIVTILGAKDLPSREDGRPRNPYVKIYFLPDRSDKNKRRTKTVKKTLEPKWNQTFIYSPVHRREFRERMLEITLWDQARVREEESEFLGEILIELETALLDDEPHWYKLQ	soluble
MQKEFFQELQDILYEKNITIKFHSFQNFYEDFKSHKFIFNHEHQSIFKKNTSQQITLFHPTRIRRPKFLNSTHALAKIIHSVAHIEFNAINLALDASYRFKNLPLQFYYDWLEVADEEIKHFKLLNSALEELGYKYGDFPVHDNLESALEATKDSLSFRMGIVHRGLEAKGLDANPFVVQKLQSSNHSIKNLLMEYLEIILNDEIKHVKKGDTWWKFANQNKYNFIELCKTFKQFSLAGKKLNIQARIKAGFTQEECEVIEKFYSLEHHHHHH	not soluble
MTKTVEMVITGAQVLNVYTREFEATSLWIDHGRIISNLRDEPYIAAQHVDATGQWIVPGMIDAHVHMESSMVAPSELGKVLLQHGVTTIATDPHELANVAGLEHHHHHH	not soluble
MVNSKVLNTLEYQQVKQQLAPYLVSATGQQALNELHPMTSVADIQRALDETNDGAEVYRLKGGIPVARLADIKPHMKRLAIGATLNGSELGQVGRVLRTTRAITRFFAELLEDAPELEHHHHHH	not soluble
MAHHHHHHMLEFLVTTQPSRRIVCRNEATYIYFWPYLFSREVPGALQLCRWAARRGAAVHGAVRLQPSETPNAAHRCYLTVTRPVAAGRTLISLPAALSLSVSSPESRKGTFIGRYSALESFAQLLARELHNPRSPHRAYLEFLHDLHNSGTDEVSDALLAGLRYERAAVLVDQLDAMYAGNSLQARGAANAPFLDKEQLTSASQRVEWVRLHQLQRRLEQGVPHFAAKSTAWALSMALSRAMEDDAEGLSLYPLIDFCAHSFEPNAYICVGEDERIAATRPVRWADSSGEPLLHVVTRRLLHAGEKVTLRWHWRPVKTTEDAEFWQMRFGYVPQSE	not soluble
MKLTDRWFTSISEDEKGNIVFVNGRLELDEFRLSGKLKIRIEIRWPYEADEQGLPTESAGKRIEEIELLIRKAMEKDKLAIMTGNYTGGGTKYWVYYARTERVFGERLNEVLAPYETLPLEIECEVDTDWEEYLDMLSMKDENSI	not soluble
MGSDKIHHHHHHMTILDHKIDFAVILSVTKANPNGDPLNGNRPRQNYDGHGEISDVAIKRKIRNRLLDMEEPIFVQSDDRKADSFKSLRDRADSNPELAKMLKAKNASVDEFAKIACQEWMDVRSFGQVFAFKGSNLSVGVRGPVSIHTATSIDPIDIVSTQITKSVNSVTGDKRSSDTMGMKHRVDFGVYVFKGSINTQLAEKTGFTNEDAEKIKRALITLFENDSSSARPDGSMEVHKVYWWEHSSKLGQYSSAKVHRSLKIESKTDTPKSFDDYAVELYELDGLGVEVIDGQ	not soluble
MATTPETMENHAFDADMSFESALENYLSSDFGDLEEGSIVKGEIVRLGDDYVLVDVNFKSEGQIAANEFRDANGDLIIGVGDRVDVFVVRKNEMEGTITLSYEKAKRMQLFDQLEEVQEKNGVIKGRIVRRIKGGYTVDLGGVEAFLPGSHVDLRPVPDMDALVNQEYEFRVLKINRRRSNVIVSRRVLLEEERDSKRQDLLRTLEEGQVVKGKAKNITEYGVFVDLGGLDGLLHITDMSWKRIRHPKELVSLGQELELKVLSFDRDSQKVSLGMKQLVADPWQDITAKFPEGLRGQGKVTNLVDYGAFVELEPGVEGLVHISEMSWTRKLRHPSQMVRVGDEVEVVILGVDPDKKRISLGMKQVKPNPWEVVAEKYPEGTILEGVIKNITEFGMFIGIEDGIDGLIHVSDISWTKKIRHPNEMYKVGDVVQAKVLTVDQENEKFTLGVKQLAEDPWSRVPATYPVGTLVTGSVTNITDFGLFVEVEEGIEGLVHVSEISQKKIKSPSEIYKEGQEIQAKVIHVSAEERRLGLSIKQLKDEEERRKPKEFRSGSPEVGGQTLGDILKLKLEEDAADNLEHHHHHH	not soluble
NLQPLETTITDVERFKDTVTLELSCPSCDKRFPFGGIVSSNYYRVSYNGLQCKHCEQLFTPLQLTSQIEHSIRAHISLYYAGWLQCDDSTCGIVTRQVSVFGKRCLNDGCTGVMRYKYSDKQLYNQLLYFDSLFDCEKNKKQELKPIYLPDDLDYPKEQLTESSIKALTEQNRELMETGRSVVQKYLNDCGRRYVDMTSIFDFMLN	soluble
MAHHHHHHMHSSPSKKKDLSNGACPAKEKEASKRKQSFNDVELEIDDDIITHLSSRICNKNVTHKILKINNLIDDQMHDYIANGRASEISESNDESDAHEGVERAHLNLRNGYAGCQHGDESSSNTISNDLPERKAISSEQVPTYELNKEVQGKSKAKGKGKGKGELLSDDPHLEEPLAEGHTHFDRIKMMNLLGENTIVYNSRDDQNNVLFLCYDEKSEQCDVCDRYRKNYMSNMHPSSCVPLRGGAAMKGDAAINGNAPINGVAATNGAAAINGTAAIDALSDYFFVLGSTSNSRKYILKQSSLDFLSVRIHIDEKKIGCRKSHDPLTLTANIAVGKGLKLLNMIKTDSELSKQIAELSKGKKVVLLVGDEVIYCNNKIYEKPKNEKEASNFLKSYNNSKCYSYSSITLIELETEKIITGIDESIINVYDMDDSVVKKILDDSSIYFCAGALKIENTHMHRYIKVIKGNIDSIFGLSLNLLFHLVNFL	not soluble
MKDESERVSNRLPMDESREHLMVKVARMTYQQELNQSEIAAETGLNRWQVSRLLQEARDLGIVRIEIIPRSPRRPDLETALQQTFNLNDSVVVSSDGEQAQSLDTVAQAAGQYIASIKSNGATVGVSWGRTMGAVAHWLPLQWSDGGEVVQINGTVAPISGVTYHNDVAGIFARKAGARLVPLPVPAIVGQRVTREVLERDRIVADVLTKARSAQILIFSCGSLSEESVLVRSGNILRDELATLLSKGAVGDVLGRFIDVNGEIVDAELDARTIGLSLSDLKTSGKAIGIAAGSEKFNVVLGVLRAGLVNVLVTDEATATFALEHA	not soluble
MKAYQRYRFPSLRSVARDASARDSAALAAEAQCADIDARIEEGFRQGREDGYRDGFEHGEAEGMKQGREAGFAAGAQQARDALRSEYAGIAKTLDAMRDAFVRVQAEYLAARRTELVDVVAKVAKQVIRCELTLQPSQMAALIEETLGTMPASSDAPEVHLSPDDHERLAGLLPERARHWRLVPDARLEAGECRVLLGGNEADAGCQHRLDACVERIGEQLPGAPDVEAAAT	not soluble
NTPYLRPEMFPELAILQQNWQVIRDEGLHLQQLEQIKAADKYNDAGFNSFFKTGWKRFYLKWYEDAHPSASQLCPQTTALLRDIPSVKAAMFATLPDGSRLPRHRDPYAGSLRFHLGLATPNDDRCFIEVDGQRYSWRDGEGVLFDETYIHYAENTSGENRLILFCDIERPMRYRWAQKVNHWLGRHLMSAASAPN	not soluble
MGSDKIHHHHHHMNALQFQKKLLSMQENMMNFALMLTANRDDAQDLMQDTTLKVLDNQEKFVDNINFKGWVLTVMRNIFINNYHKIVRTQTVVDQGVDLYNLDVVNDSGFDSPDGAYQIQEITKAINGLNNELKVPFSMFLSGYKYNEIADKLDVPLGTVKSRIFFARQELQKVLKDFRQG	not soluble
MSLEHAAEILANRYVRGDALTNPDATKEYVRCKLGSYEREVFALLLLDNQNRLIEFKELFQGTVDAASVYPREVVKAVLEVNAAAVIFAHNHPSGDSTPSQADRRITERLKDTLALVDVRVLDHIVTGDTCTSFAERGWLEGHHHHHH	not soluble
MQGKALQDFVIDKIDDLKGQDIIALDVQGKSSITDCMIICTGTSSRHVMSIADHVVQESRAAGLLPLGVEGENSADWIVVDLGDVIVHVMQEESRRLYELEKLWS	soluble
MGHHHHHHSHDNLSVPLMEEDLDGSSGVLFPFYDADTSMLYVVGKGDGNIRYYEVSADKPHLSYLTEYRSYNPQKGIGVMPKRGLDVSSCEIFRFYKLITTKSLIEPISMIVPRRSESYQEDIYPPTAGAQPSLTAQEWLSGMNRDPILVSLRPGSELLRPHPLPAERPIFNSMAPASPRLLNQTEKLAAEDGWRSS	not soluble
MGSDKIHHHHHHMSQIISVHSFRGGTGKSNMTANLATTLALQGKRIAIIDTDIQSPGIHVIFGLNEQKMNNCLNDYLWGKCAIEDAAYDVTHLLKGEGGSGKLYLIPSSINPGQITRILREGYDVARLNDGFYEIINALDLDYLLIDTHPGLNEETLLSIAISDILVVILRPDQQDFQGTAVTLEVARKLEVPKMMLVVNKVLSTFDFNALQQEVESTYKTPVAGIVPLSEDIIRLASSNIFCLLYTSHPFSQVVQKITAQIIREQAKVAVRGAF	not soluble
MGSDKIHHHHHHMSGKGAEYWTKRISEQEMPALSSTVKTLEKLAKDDVSSLAILGRSVMHDNALTSRILKVANSAIYNKGISHVTTVSRAAVVLGFDTIRNICITAKLLSSLLENKGLSEPVYHRLLTLMARAFQAAMLAKMMLKDHDEELQEEVFIAALLYHLGESAFWSMGGETTEQLDARLNQVDEKDANNVVREVLGTSFTQLSMGIAKNWGLGEVLVKSLSNPNERTPEIRSIYLANKISELMASDSKDIAELNHRIKQAADMLDLEVDEFKGRMIQCSHATRKLADTYGAKVLVAFLPDTHQLTLAAEPEAEPIKVREFNVDLQLKKLRELTDCAINKANFNEVITITLSGLLDGIGMDRCAVMLLSPNRKRLQPRVVLGENGDKMKNEFIVELNHDKNVFAESVDLKKPLFIDNPSSEKWRLYTDEELRRHTSVMGFMLAPILVDNKVIGLLYADRHSSERKLAEVDFERFTHFAQLTNLCLSVSVH	not soluble
MLPRLGGFLAGFSSTISSFLPKTTASTLFTHQSSQFSTSFPAWRNNFLQFIHYRNGPPKRRARSKDKSAISGYSHYKGIVLKTVIRHPKKPNSGNRKCAIVRLSTGAEVCAYIPNVGHNLQEHSQVLVKGGRRRDLISVKANIVRGKYDCAPAGGRK	not soluble
MLLLRITMLEGRSTEQKAELARALSAAAAAAFDVPLAEVRLIIQEVPPTHWTVGGISMAELRQQASTSTQGQ	soluble
GSFTMADLDDIKDGKDFRTDQPQKNIPFTLKGCGALDWGMQSRLSRIFNPKTGKTVMLAFDHGYFQGPTTGLERIDINIAPLFEHADVLMCTRGILRSVVPPATNRPVVLRASGANSILAELSNEAVALSMDDAVRLNSCAVAAQVYIGSEYEHQSIKNIIQLVDAGMKVGMPTMAVTGVGKDMVRDQRYFSLATRIAAEMGAQIIKTYYVEKGFERIVAGCPVPIVIAGGKKLPEREALEMCWQAIDQGASGVDMGRNIFQSDHPVAMMKAVQAVVHHNETADRAYELYLSEKQ	soluble
